To fix the notation:
T1: human mutCALR on BaF3 cells stably expressing human MPL and human mutCALR (MPL-mutCALR cells) (human)
T1 construct: also called mutant calreticulin
T1 chain: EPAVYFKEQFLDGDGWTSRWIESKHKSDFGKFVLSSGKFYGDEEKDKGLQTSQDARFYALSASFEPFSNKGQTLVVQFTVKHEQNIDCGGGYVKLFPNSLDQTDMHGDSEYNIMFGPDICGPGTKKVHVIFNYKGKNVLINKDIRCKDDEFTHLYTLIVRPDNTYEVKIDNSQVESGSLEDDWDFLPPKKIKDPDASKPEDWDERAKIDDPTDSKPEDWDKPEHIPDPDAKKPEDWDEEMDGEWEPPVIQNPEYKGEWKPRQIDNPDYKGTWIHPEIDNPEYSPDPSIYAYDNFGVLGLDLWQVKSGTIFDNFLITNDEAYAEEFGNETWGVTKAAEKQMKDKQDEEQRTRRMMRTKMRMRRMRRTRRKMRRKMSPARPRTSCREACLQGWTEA

T2: human Type 1 mutCALR on Ba/F3 cells expressing MPL and Type 1 mutCALR (human)
T2 chain: T1 chain

B1: anti-mutCALR antibody clone 15 (antibody, human IgG1, lambda)
heavy: not shown
light: SYELTQPPSVSVAPGKTARITCGGDNIGSKSVHWYQQKPGQAPVLVVYDDSDRPSGIPERFSGSNSGNTATLTINRVEAGDEADYYCQVWDSSNDLLIFGGGTKLTVLGQPKAAPSVTLFPPSSEELQANKATLVCLISDFYPGAVTVAWKADSSPVKAGVETTTPSKQSNNKYAASSYLSLTPEQWKSHRSYSCQVTHEGSTVEKTVAPTECS
notes: human IgG1
B2: anti-mutCALR antibody clone 17 (antibody, human IgG1, lambda)
heavy: not shown
light: SYVLTQPPSVSVAPGQTARITCGGSDIGDEIVHWYQQKPGQAPVLVVYDDSDRPSGIPERFSGSNSGNTATLTISRAQAGDEADYYCQVWDSSSDHLIFGGGTKLTVLGQPKAAPSVTLFPPSSEELQANKATLVCLISDFYPGAVTVAWKADSSPVKAGVETTTPSKQSNNKYAASSYLSLTPEQWKSHRSYSCQVTHEGSTVEKTVAPTECS
notes: human IgG1
B3: anti-mutCALR antibody clone 32 (antibody, human IgG1, lambda, V domains shown)
VH: QVQLVQSGAEVKKPGATVKISCKVSGYSFTDYFIHWVQQAPGKGLAWVGLVDPEDGETIYAEKFQGRVTITADTSTDTAYMELSSLRSEDTAVYYCATPGGILTDPDAFDIWGQGTMVTVSS
VL: QSALTQPASVSGSPGQSITISCTGTSSDVGGYNYVSWYQQHPGKAPKLMIYEVSNRPSGVSNRFSGSKSGNTASLTISGLQAEDEADYYCSSYTSSSTPYVFGTGTKVTVLG
notes: human IgG1
B4: anti-mutCALR antibody clone 36 (antibody, human IgG1, lambda, V domains shown)
VH: B3 VH
VL: QSALTQPRSVSGSPGQSVTISCAGTGSDVGGYNYVSWYQHHPGKAPKLMIYDVNKRPSGVPDRFSGSKSGNTASLTISGLQAEDEADYYCSSYTSSSTFYVFGTGTKVTVLG
notes: human IgG1
B5: anti-mutCALR antibody clone 53 (antibody, human IgG1, lambda, V domains shown)
VH: QVQLVQSGAEVKKPGASVKVSCKVSGYTLTELSMHWVRQAPGKGLEWMGGFDPEDGETIYAQKFQGRVTMTEDTSTDTAYMELSSLRSEDTAVYYCATDIQGLAEFDYWGQGTLVTVSS
VL: QSALTQPRSVSGSPGQSVTISCTGTNTDVGAYIDVSWYQQHPGKAPKLIIYDVSKWPSGVPDRFSGSKSGNTASLTISGLQAEDEADYYCCSYAGNHSFSFGGGTKVTVLG
notes: human IgG1
B6: anti-mutCALR antibody clone 51 (antibody, human IgG1, lambda, V domains shown)
VH: EVQLVQSGAEVKKPGSSVKVSCKASGGTFSSYAISWVRQAPGQGLEWMGGIIPIFGTANYAQKFQGRVTITADESTSTAYMELSSLRSEDTAVYYCASSPLRGSGWYWHYYYGMDVWGQGTTVTVSS
VL: SYELTQPPSVSVAPGKTARITCGGNKIGTKSVHWYQQKPGQAPVLVIYQDSKRPSGIPERFSGSNSGNTATLTISGTQAMDEADYYCQAWGSSTVVFGGGTKLTVLG
notes: human IgG1
B7: anti-mutCALR antibody clone 6 (antibody, human IgG1, lambda)
heavy: not shown
light: QSALTQPASVSGSPGQSITISCTGTSSDVGGYNYVSWYQQHPGKAPKLMIYEVSNRPSGVSNRFSGSNSGNTATLTINRVEAGDEADYYCQVWDSSNDLLIFGGGTKLTVLGQPKAAPSVTLFPPSSEELQANKATLVCLISDFYPGAVTVAWKADSSPVKAGVETTTPSKQSNNKYAASSYLSLTPEQWKSHRSYSCQVTHEGSTVEKTVAPTECS
notes: human IgG1
B8: anti-mutCALR antibody clone 1 (antibody, human IgG1, lambda, V domains shown)
VH: EVQLVQSGAEVKKPGASVKVSCKVSGYTLTELSMQWVRQAPGKGLEWMGGFDPDDGETMYAEKFQGRLTVTEDTSTDTVYMELRSLTSEDTALYFCATSPGYDFFDYWGQGTLVTVSS
VL: SYVLTQPPSVSVAPGKTARITCGGNYIGSKSVHWYQQKPGQAPVLVVYDDGDRPSGIPARFSGSNSGNTATLTISRVEAGDEADYYCQVWDSISDHVVFGGGTKLTVLG
notes: human IgG1
B9: anti-mutCALR antibody clone 9 (antibody, human IgG1, lambda, V domains shown)
VH: B8 VH
VL: SYVLTQPPSVSVAPGQTARIPCGGNNIGSKSVHWYQQKPGQAPVLVVYDDRDRPSGIPERFSGSNSGNTATLTINRVEAGDEADYYCQVWDSSNDLLIFGGGTKLTVLG
notes: human IgG1
B10: anti-mutCALR antibody clone 7 (antibody, human IgG1, lambda, V domains shown)
VH: B8 VH
VL: B9 VL with R19S, P21T, G23V, N25T, I27F, S31N, K38R, R51S
notes: human IgG1
B11: anti-mutCALR antibody clone 5 (antibody, human IgG1, lambda, V domains shown)
VH: B8 VH
VL: SYVLTQPPSVSVAPGQTASITCVGTNFGSKNVHWYQQRPGQAPVLVVYDDSDRPSGIPERFSGSNSGNTATLTISRVEAGDEADYYCQVWDSSSDHLIFGGGTKLTVLG
notes: human IgG1
B12: anti-mutCALR antibody clone 3 (antibody, human IgG1, lambda, V domains shown)
VH: B8 VH with K63R
VL: B9 VL with P21T, R51S
notes: human IgG1
B13: anti-mutCALR antibody clone 4 (antibody, human IgG1, lambda, V domains shown)
VH: B8 VH
VL: B9 VL with P21T, R51S
notes: human IgG1
B14: anti-mutCALR antibody clone 2 (antibody, human IgG1, lambda, V domains shown)
VH: B8 VH
VL: B9 VL with V3E, Q16K, P21T, N25D, R51S, N75S, N94I, L96H, L105V
notes: human IgG1
B15: anti-mutCALR antibody clone 8 (antibody, human IgG1, lambda, V domains shown)
VH: B8 VH with E1Q, A16S
VL: B8 VL with V3E, K16Q, Y26N, G51S, A59E, N68R, Y86H, I93S, V97L
notes: human IgG1
B16: anti-mutCALR antibody clone 44 (antibody, human IgG1, lambda, V domains shown)
VH: B6 VH
VL: B6 VL with E3V, V12A, T21S, K26N, G28R, T29S, P39A, G91D, S93N
B17: anti-mutCALR antibody clone 46 (antibody, human IgG1, lambda, V domains shown)
VH: B6 VH with E1Q
VL: B6 VL with K26N, G28R, T29S, I47V, A89V, G91D, V95A
B18: anti-mutCALR antibody clone 47 (antibody, human IgG1, lambda, V domains shown)
VH: B6 VH
VL: B6 VL with Q49R, K52N, G76R, T77A, M80G, A89V, G91D

Substitutions are numbered along the chain they refer to.

The target of one experiment is T3, Recombinant MBP-mutCALR Type 1 fusion protein (human).
T3 construct: custom made at Cepter; also called recombinant mutCALR protein
Kind of experiment: SPR, IgG captured, 1:1 fit, Exp. 2. Summed up:
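Antibodies captured via amine-coupled anti-human IgG (Fc) on a CM4 chip; recombinant MBP-mutCALR Type 1 fusion protein as analyte. Run at 25 °C in Tris-buffered saline pH 7.2, 0.005% P20, 1 mM CaCl₂. Multiple-cycle kinetics fitted to a 1:1 binding model.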
In the case of B1, the Kd was 1.02 nM, the koff turned out to be 0.00249 s⁻¹ and the kon was 2.44e+06 M⁻¹ s⁻¹.

B2: the Kd was determined as 0.249 nM, the koff came to 0.00127 s⁻¹ and the kon was 5.12e+06 M⁻¹ s⁻¹.

As for B3, the Kd stood at 1.71 nM, the koff worked out at 0.00314 s⁻¹ and the kon worked out at 1.84e+06 M⁻¹ s⁻¹.

For the molecule B4, the Kd was 1.22 nM, the koff is 0.00166 s⁻¹ and the kon amounted to 1.36e+06 M⁻¹ s⁻¹.

On to B5, for which the Kd is 17 nM, the koff was found to be 0.108 s⁻¹ and the kon was 6.36e+06 M⁻¹ s⁻¹.

Regarding B6, the Kd came out at 0.823 nM, the koff was 0.000524 s⁻¹ and the kon is 636000 M⁻¹ s⁻¹.

Take B7: the Kd came to 0.538 nM, the koff was determined as 0.00123 s⁻¹ and the kon stood at 2.29e+06 M⁻¹ s⁻¹.

The target of another experiment is T3, Recombinant MBP-mutCALR Type 1 fusion …. Kind of experiment: SPR, IgG captured, 1:1 fit, Exp. 1. How it is done:
Experiment 1: Recombinant MBP-mutCALR Type 1 fusion protein was custom made at Cepter (cepterbiopartners.com). Data for the interaction of antibodies with recombinant MBP-mutCALR Type 1 fusion protein were collected at 25° C. on a Biacore 8K instrument (Cytiva, Marlborough, Mass.), and all reagents were obtained from Cytiva unless otherwise specified. The experiments were conducted using Tris-buffered saline (pH 7.2), 0.005% Surfactant P20, 1 mM CaCl₂) as running buffer. To prepare the capture surfaces, anti-human IgG (Fc) antibodies (Product #29234600) was amine-coupled onto a CM4 chip (Product #BR100534) under standard conditions using an Amine Coupling Kit (Product #BR100050). […] The kinetics parameters were obtained by applying 1:1 binding model to fit the data from multiple-cycle injection experiments using Biacore Insight Evaluation software.
For B1, the Kd came to 6.03 nM, the koff turned out to be 0.215 s⁻¹ and the kon turned out to be 3.57e+07 M⁻¹ s⁻¹.

Take B2: the Kd is 2.22 nM, the koff turned out to be 0.00347 s⁻¹ and the kon is 1.56e+06 M⁻¹ s⁻¹.

With B3, the Kd was determined as 5.63 nM, the koff stood at 0.00768 s⁻¹ and the association rate constant (kon) turned out to be 1.36e+06 M⁻¹ s⁻¹.

As for B4, the Kd amounted to 2.95 nM, the koff came out at 0.00205 s⁻¹ and the kon worked out at 695000 M⁻¹ s⁻¹.

Consider B5, for which the Kd worked out at 10.2 nM, the koff was 0.00235 s⁻¹ and the association rate constant (kon) is 229000 M⁻¹ s⁻¹.

As to B6, the Kd was 4.64 nM, the koff was 0.00109 s⁻¹ and the kon was 235000 M⁻¹ s⁻¹.

Regarding B7, the Kd was determined as 2.57 nM, the koff stood at 0.00153 s⁻¹ and the kon was found to be 597000 M⁻¹ s⁻¹.

Another experiment has as its target T1, human mutCALR on BaF3 cells stably …. The experiment is described as follows: flow cytometry, BaF3 MPL-mutCALR cells. How it is done: On the day of the assay, cells were washed and resuspended in assay buffer. Approximately 200,000 cells/well were added to 96-well plates and stained with the indicated concentration of antibodies for 30 minutes on ice. Cells were then washed and stained with goat anti-human secondary conjugated to R-phycoerythrin (R-PE) (Jackson Immuno Research Laboratories) for 30 minutes on ice. The cells were then washed and analyzed by flow cytometry.
Turning to B8, the EC50 stood at 0.01 µg/mL and the “MPL-mutCALR AUC” value turned out to be 52800.

As for B9, the “MPL-mutCALR AUC” value was 75300.

Regarding B10, the EC50 worked out at 0.19 µg/mL and the “MPL-mutCALR AUC” value came out at 66800.

On to B11, for which the EC50 amounted to 0.09 µg/mL and the “MPL-mutCALR AUC” value is 57100.

Consider B12, for which the “MPL-mutCALR AUC” value was found to be 102000.

As for B13, the “MPL-mutCALR AUC” value turned out to be 74000.

Take B14: the EC50 is 0.01 µg/mL and the “MPL-mutCALR AUC” value was 60400.

For the molecule B15, the EC50 stood at 4.12 µg/mL and the “MPL-mutCALR AUC” value amounted to 67400.

Another experiment deals with T2, human Type 1 mutCALR on Ba/F3 cells …. Kind of experiment: cell-based or functional assay.
For B16, the “IC50, inhibition of pSTAT5” value worked out at 7 µg/mL.

Turning to B17, the “IC50, inhibition of pSTAT5” value is 3.9 µg/mL.

For B18, the “IC50, inhibition of pSTAT5” value is 10 µg/mL.

In the case of B8, the “IC50, inhibition of pSTAT5” value turned out to be 0.47 µg/mL.

On to B9, for which the “IC50, inhibition of pSTAT5” value is 0.056 µg/mL.

B10: the “IC50, inhibition of pSTAT5” value was 0.049 µg/mL.

With B11, the “IC50, inhibition of pSTAT5” value was 0.03 µg/mL.

B12: the “IC50, inhibition of pSTAT5” value came out at 0.021 µg/mL.

For the molecule B13, the “IC50, inhibition of pSTAT5” value worked out at 0.04 µg/mL.

As to B14, the “IC50, inhibition of pSTAT5” value came out at 0.12 µg/mL.

Take B15: the “IC50, inhibition of pSTAT5” value came out at 0.043 µg/mL.

For the origin of these results see US20230272055A1 (Incyte, published 2023).
